This passage reports binding results from publication PMC3519889.

Data set [1] relates to NarP (SO3982), phosphorylated (Shewanella oneidensis). The data set is described as follows: EMSA. The following applies: 100 mM Tris/HCl pH 7.4, 20 mM KCl, 10 mM MgCl2, 2 mM DTT, 10% glycerol, 15 C, 60 min, ~2 nM probe, 2 ug poly(dI·dC); 4.8% native PAGE.
Data set [2] has as its system NarP(D57N) (NarP#) (Shewanella oneidensis). The data set is described as follows: EMSA. The following applies: no binding up to 2 uM, 100 mM Tris/HCl pH 7.4, 20 mM KCl, 10 mM MgCl2, 2 mM DTT, 10% glycerol, 15 C, 60 min, ~2 nM probe, 2 ug poly(dI·dC), 4.8% native PAGE.

On to nrfA promoter fragment, for which the binding in data set [1] is less than 0.25 µM; in data set [2] (not phosphorylation-treated), greater than 2 µM; in data set [2] (treated with NarQ51-585 and ATP) it was greater than 2 µM.
